# From patent US10383919B1, “Fragments of growth hormone binding protein” (The University of the Sciences, priority 2013, dated 2019)
# Where no end group is shown, it is not given here.
# Key:
# rhGH = target: T1, rhGH (Homo sapiens, UniProt P01241); experiment: Equilibrium dialysis of GHBP peptides against rhGH (12-14 kDa MWCO membrane, MICRO-BCA read-out of lower chamber); assay type: binding; conditions: 1:1 ratio of rhGH:peptide; 0.25 mg/ml hGH stock; starting peptide 11.36 uM; 37° C., 24 hours
# T1 construct: purchased Bresagen, Adelaide, Australia
# Method: Equilibrium Dialysis: High Throughput Equilibrium Dialysis was performed using the 96-well Micro-Equilibrium Dialysis Device HTD (HTDialysis, LLC, CT, USA) according to the supplier's directions. The dialysis membrane was a SPECTRA/POR cellulose ester membrane. We tested a 3.5-5 kDa Molecular Weight Cut-off (MWCO) SPECTRA/POR membrane and a 12-14 kDa Molecular Weight Cut-off (MWCO) SPECTRA/POR membrane for their ability to allow peptide equilibration. Peptides were added to the upper chamber of each well of both a 3.5-5 kDa MWCO and a 12-14 kDa MWCO membrane and incubated at 37° C. with shaking at 200 rpm for 24 hours. Concentration of the peptide in the upper and lower chamber was assayed using MICRO-BCA Assay (Pierce) according to the supplier's directions.
# We then confirmed the ability of the 12-14 kDa MWCO membrane to retain the hGH. Lyophilized recombinant hGH (Bresagen, Adelaide, Australia) was dissolved in phosphate-buffered saline (PBS) plus 0.05% sodium azide. One-hundred uL of a 25 mg/mL solution plus 100 uL of PBS were added to the upper chamber of the micro-dialysis device fitted with a 12-14 kDa MWCO membrane and incubated at 37° C. with shaking at 200 rpm for 24 hours. Concentration of hGH in the upper and lower chamber was assayed using MICRO-BCA Assay (Pierce) according to the supplier's directions. […] We used the 12-14 kDa MWCO membrane for our binding assays.
# The upper chamber of each well received 100 uL of 0.25 mg/ml hGH and 100 uL of a 22.72 uM peptide solution. The lower chamber of each well received 100 uL of buffer and 100 uL of a 22.72 uM peptide solution. Thus, the starting concentration of peptide in both the upper and lower portion of each well was 11.36 uM. Plates were incubated at 37° C., with shaking at 200 rpm for 24 hours. […] The assay was configured with a 1:2 sample: working reagent ratio and incubated 45° C. for 4 hours and read in a spectrophotometer at 562 nm. Concentrations of peptide in the lower chamber were determined based on the equations generated by the standard curves for each peptide. […]
# [1] = cited from earlier work
# T1 sequence (P01241 27-217): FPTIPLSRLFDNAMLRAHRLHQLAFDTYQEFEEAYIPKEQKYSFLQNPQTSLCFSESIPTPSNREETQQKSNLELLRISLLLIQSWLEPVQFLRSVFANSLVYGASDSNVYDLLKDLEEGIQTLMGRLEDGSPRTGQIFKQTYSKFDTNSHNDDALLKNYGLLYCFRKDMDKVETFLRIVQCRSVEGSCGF
concentration of peptide in the lower chamber in the presence of rhGH (binding to rhGH) (rhGH),Substance,half-life in the bloodstream [1]
substantially reduced,"TSIWIPYCIGKCFSVDEIVQPD (TSIWIPYCIGKCFSVDEIVQPD; not fully specified; printed as Thr-Ser-Ile-Trp-Ile-Pro-Tyr-Cys-Ile-Gly-Lys-Cys-Phe-Ser-Val-Asp-Glu-Ile-Val-Gln-Pro-Asp; cysteine pairing not given here; listed as Homo sapiens) [Peptide 7, Peptide 5 & Peptide 6 bridged]",–
substantially reduced,"S-P-E-R-E-T-F-S (SPERETFS; listed as Homo sapiens) [Peptide 1, hGHBP fragment Serine-40 to Serine-47]",–
substantially reduced,"R-R-N-T-Q-E (RRNTQE; listed as Homo sapiens) [Peptide 3, hGHBP fragment Arginine-70 to Glutamate-76]",–
–,"hGH: Human growth hormone (somatotropin or somatropin), a peptide hormone; recombinant hGH (Bresagen) was used in the binding assays",about fifteen
